Where a chain is given by its changes, count along the chain named. Numbers in names are those of the source.

First the molecules themselves.
B1: D10 E06-hFc (S239/442C T366Y/Y407T), [G4S]1 linker, MC-vc-PAB-MMAE conjugate, #677 (Fc fusion, DAR 4)
chain 1: QVQLVESGGGLVQPGGSLRLSCAASGSIFSVNTMGWYRQAPGKQRDLVAVATSGGTIHYADSVKGRFTISRDNAKNTVYLQMNSLKPEDTAVYYCNLVVPYGMIAGDHDYWGQGTKVTVSSGGGGSEPKSSDKTHTCPPCPAPELLGGPCVFLFPPKPKDTLMISRTPEVTCVVVDVSHEDPEVKFNWYVDGVEVHNAKTKPREEQYNSTYRVVSVLTVLHQDWLNGKEYKCKVSNKALPAPIEKTISKAKGQPREPQVYTLPPSRDELTKNQVSLYCLVKGFYPSDIAVEWESNGQPENNYKTTPPVLDSDGSFFLYSKLTVDKSRWQQGNVFSCSVMHEALHNHYTQKSLCLSPGK
chain 2: QVHLVESGGGLVQAGGSLRLSCAASRRSFSEYAMGWFRQAPGKEREFVAAIGWSGVIEYADSVKGRFTISRDNAKDTVYLQMNSLKPEDTAVYYCAAGLGIRVVSQTPAYWGQGTQVTVSSGGGGSEPKSSDKTHTCPPCPAPELLGGPCVFLFPPKPKDTLMISRTPEVTCVVVDVSHEDPEVKFNWYVDGVEVHNAKTKPREEQYNSTYRVVSVLTVLHQDWLNGKEYKCKVSNKALPAPIEKTISKAKGQPREPQVYTLPPSRDELTKNQVSLTCLVKGFYPSDIAVEWESNGQPENNYKTTPPVLDSDGSFFLTSKLTVDKSRWQQGNVFSCSVMHEALHNHYTQKSLCLSPGK
modifications: here or on the partner: MC-vc-PAB-MMAE on Cys of S239C and S442C (EU numbering)
B2: D10 F05-hFc (S239/442C T366Y/Y407T), [G4S]1 linker, MC-vc-PAB-MMAE conjugate, #679 (Fc fusion, DAR 4)
chain 1: B1 chain 1
chain 2: QVQLVESGGGLVQAGGSLRLSCAASGRAFGDYNIGWFRQAPGKEREFVARRTWDGSSTRYDDSVKGRFTVSIDNAKNTAYLQMNSLKTEDTAVYYCAAGRYSRVRGWEYDYWGQGTQVTVSSGGGGSEPKSSDKTHTCPPCPAPELLGGPCVFLFPPKPKDTLMISRTPEVTCVVVDVSHEDPEVKFNWYVDGVEVHNAKTKPREEQYNSTYRVVSVLTVLHQDWLNGKEYKCKVSNKALPAPIEKTISKAKGQPREPQVYTLPPSRDELTKNQVSLTCLVKGFYPSDIAVEWESNGQPENNYKTTPPVLDSDGSFFLTSKLTVDKSRWQQGNVFSCSVMHEALHNHYTQKSLCLSPGK
modifications: here or on the partner: MC-vc-PAB-MMAE on Cys of S239C and S442C (EU numbering)
B3: D10 E10-hFc (S239/442C T366Y/Y407T), [G4S]1 linker, MC-vc-PAB-MMAE conjugate, #678 (Fc fusion, DAR 4)
chain 1: B1 chain 1
chain 2: B2 chain 2 with A24V, F29L, G30S, R51K, D73E, N74D, N84S, V104A
modifications: here or on the partner: MC-vc-PAB-MMAE on Cys of S239C and S442C (EU numbering)
B4: A06 F05-hFc (S239/442C T366Y/Y407T), [G4S]1 linker, MC-vc-PAB-MMAE conjugate, #712 (Fc fusion, DAR 4)
chain 1: QVHLVESGGGLVQAGGSLRLSCAASGRTFLSMGWFRQAPGKEREFVAAISWTGGSTGYADSVKGRFTISRESDKETMYLQMNSLKPEDTAVYYCAARGDVYYGGDDATRYKYWGQGTQVTVSSGGGGSEPKSSDKTHTCPPCPAPELLGGPCVFLFPPKPKDTLMISRTPEVTCVVVDVSHEDPEVKFNWYVDGVEVHNAKTKPREEQYNSTYRVVSVLTVLHQDWLNGKEYKCKVSNKALPAPIEKTISKAKGQPREPQVYTLPPSRDELTKNQVSLYCLVKGFYPSDIAVEWESNGQPENNYKTTPPVLDSDGSFFLYSKLTVDKSRWQQGNVFSCSVMHEALHNHYTQKSLCLSPGK
chain 2: B2 chain 2
modifications: here or on the partner: MC-vc-PAB-MMAE on Cys of S239C and S442C (EU numbering)
B5: D10 E10-hFc (S239/442C T366Y/Y407T), [G4S]3 linker, MC-vc-PAB-MMAE conjugate, #636 (Fc fusion, DAR 4)
chain 1: QVQLVESGGGLVQPGGSLRLSCAASGSIFSVNTMGWYRQAPGKQRDLVAVATSGGTIHYADSVKGRFTISRDNAKNTVYLQMNSLKPEDTAVYYCNLVVPYGMIAGDHDYWGQGTKVTVSSGGGGSGGGGSGGGGSEPKSSDKTHTCPPCPAPELLGGPCVFLFPPKPKDTLMISRTPEVTCVVVDVSHEDPEVKFNWYVDGVEVHNAKTKPREEQYNSTYRVVSVLTVLHQDWLNGKEYKCKVSNKALPAPIEKTISKAKGQPREPQVYTLPPSRDELTKNQVSLYCLVKGFYPSDIAVEWESNGQPENNYKTTPPVLDSDGSFFLYSKLTVDKSRWQQGNVFSCSVMHEALHNHYTQKSLCLSPGK
chain 2: QVQLVESGGGLVQAGGSLRLSCAVSGRALSDYNIGWFRQAPGKEREFVARKTWDGSSTRYDDSVKGRFTVSIEDAKNTAYLQMSSLKTEDTAVYYCAAGRYSRARGWEYDYWGQGTQVTVSSGGGGSGGGGSGGGGSEPKSSDKTHTCPPCPAPELLGGPCVFLFPPKPKDTLMISRTPEVTCVVVDVSHEDPEVKFNWYVDGVEVHNAKTKPREEQYNSTYRVVSVLTVLHQDWLNGKEYKCKVSNKALPAPIEKTISKAKGQPREPQVYTLPPSRDELTKNQVSLTCLVKGFYPSDIAVEWESNGQPENNYKTTPPVLDSDGSFFLTSKLTVDKSRWQQGNVFSCSVMHEALHNHYTQKSLCLSPGK
modifications: here or on the partner: MC-vc-PAB-MMAE on Cys of S239C and S442C (EU numbering)
B6: D10 F05-hFc (S239/442C T366Y/Y407T), [G4S]3 linker, MC-vc-PAB-MMAE conjugate, #637 (Fc fusion, DAR 4)
chain 1: B5 chain 1
chain 2: B5 chain 2 with V24A, L29F, S30G, K51R, E73D, D74N, S84N, A104V
modifications: here or on the partner: MC-vc-PAB-MMAE on Cys of S239C and S442C (EU numbering)
B7: A06 F05-hFc (S239/442C T366Y/Y407T), [G4S]3 linker, MC-vc-PAB-MMAE conjugate, #665 (Fc fusion, DAR 4)
chain 1: QVHLVESGGGLVQAGGSLRLSCAASGRTFLSMGWFRQAPGKEREFVAAISWTGGSTGYADSVKGRFTISRESDKETMYLQMNSLKPEDTAVYYCAARGDVYYGGDDATRYKYWGQGTQVTVSSGGGGSGGGGSGGGGSEPKSSDKTHTCPPCPAPELLGGPCVFLFPPKPKDTLMISRTPEVTCVVVDVSHEDPEVKFNWYVDGVEVHNAKTKPREEQYNSTYRVVSVLTVLHQDWLNGKEYKCKVSNKALPAPIEKTISKAKGQPREPQVYTLPPSRDELTKNQVSLYCLVKGFYPSDIAVEWESNGQPENNYKTTPPVLDSDGSFFLYSKLTVDKSRWQQGNVFSCSVMHEALHNHYTQKSLCLSPGK
chain 2: B5 chain 2 with V24A, L29F, S30G, K51R, E73D, D74N, S84N, A104V
modifications: here or on the partner: MC-vc-PAB-MMAE on Cys of S239C and S442C (EU numbering)
B8: A06 E10-hFc (S239/442C T366Y/Y407T), [G4S]3 linker, MC-vc-PAB-MMAE conjugate, #664 (Fc fusion, DAR 4)
chain 1: B7 chain 1
chain 2: B5 chain 2
modifications: here or on the partner: MC-vc-PAB-MMAE on Cys of S239C and S442C (EU numbering)
B9: A06 E06-hFc (S239/442C T366Y/Y407T), [G4S]3 linker, MC-vc-PAB-MMAE conjugate, #639 (Fc fusion, DAR 4)
chain 1: B7 chain 1
chain 2: QVHLVESGGGLVQAGGSLRLSCAASRRSFSEYAMGWFRQAPGKEREFVAAIGWSGVIEYADSVKGRFTISRDNAKDTVYLQMNSLKPEDTAVYYCAAGLGIRVVSQTPAYWGQGTQVTVSSGGGGSGGGGSGGGGSEPKSSDKTHTCPPCPAPELLGGPCVFLFPPKPKDTLMISRTPEVTCVVVDVSHEDPEVKFNWYVDGVEVHNAKTKPREEQYNSTYRVVSVLTVLHQDWLNGKEYKCKVSNKALPAPIEKTISKAKGQPREPQVYTLPPSRDELTKNQVSLTCLVKGFYPSDIAVEWESNGQPENNYKTTPPVLDSDGSFFLTSKLTVDKSRWQQGNVFSCSVMHEALHNHYTQKSLCLSPGK
modifications: here or on the partner: MC-vc-PAB-MMAE on Cys of S239C and S442C (EU numbering)

This assay concerns the target ALPP/ALPPL2 on ALPP/ALPPL2 positive cancer cells (MKN1, NCI-H1651, NCI-N87, Caov-3, HPAC). Nature of the assay: cell-based or functional assay.
As for B1, the % viability remaining at 96 h, MKN1 cells came to 5.3%; the % viability remaining at 96 h, NCI-H1651 cells turned out to be 28.9%; the % viability remaining at 96 h, NCI-N87 cells worked out at 25.5%; the IC50 at 96 h, cell-killing of MKN1 cells turned out to be 31.8 nM. Moreover, the IC50 at 96 h, cell-killing of NCI-H1651 cells came out at 1.3 nM and the IC50 at 96 h, cell-killing of NCI-N87 cells was 0.6 nM.
On to B2, for which the % viability remaining at 96 h, MKN1 cells was determined as 25.2%; the % viability remaining at 96 h, NCI-H1651 cells turned out to be 31.2%; the % viability remaining at 96 h, NCI-N87 cells amounted to 21.8%; the IC50 at 96 h, cell-killing of MKN1 cells worked out at 9.7 nM. For the same molecule, the IC50 at 96 h, cell-killing of NCI-H1651 cells was found to be 0.8 nM and the IC50 at 96 h, cell-killing of NCI-N87 cells came out at 0.6 nM.
B3 came in with a % viability remaining at 96 h, MKN1 cells of 24.5%; a % viability remaining at 96 h, NCI-H1651 cells of 31%; a % viability remaining at 96 h, NCI-N87 cells of 23.6%; an IC50 at 96 h, cell-killing of MKN1 cells of 8.1 nM. This molecule also had an IC50 at 96 h, cell-killing of NCI-H1651 cells of 0.6 nM and an IC50 at 96 h, cell-killing of NCI-N87 cells of 0.5 nM.
In the case of B4, the % viability remaining at 96 h, MKN1 cells was determined as 27.1%; the % viability remaining at 96 h, NCI-H1651 cells came out at 31.3%; the % viability remaining at 96 h, NCI-N87 cells amounted to 20.7%; the IC50 at 96 h, cell-killing of MKN1 cells amounted to 45.9 nM. This molecule also showed an IC50 at 96 h, cell-killing of NCI-H1651 cells of 0.9 nM and an IC50 at 96 h, cell-killing of NCI-N87 cells of 0.7 nM.
For the molecule B5, the % viability remaining at 96 h, MKN1 cells was determined as 30%; the % viability remaining at 96 h, NCI-H1651 cells amounted to 28.9%; the % viability remaining at 96 h, NCI-N87 cells was found to be 26.2%; the IC50 at 96 h, cell-killing of MKN1 cells worked out at 1.9 nM. This molecule also yielded an IC50 at 96 h, cell-killing of NCI-H1651 cells of 0.9 nM and an IC50 at 96 h, cell-killing of NCI-N87 cells of 2.1 nM.
B6 gave a % viability remaining at 96 h, MKN1 cells of 28.1%; a % viability remaining at 96 h, NCI-H1651 cells of 28%; a % viability remaining at 96 h, NCI-N87 cells of 28.9%; an IC50 at 96 h, cell-killing of MKN1 cells of 1.3 nM. For the same molecule, the IC50 at 96 h, cell-killing of NCI-H1651 cells turned out to be 1.2 nM and the IC50 at 96 h, cell-killing of NCI-N87 cells is 5.1 nM.
As for B7, the % viability remaining at 96 h, MKN1 cells turned out to be 31.6%; the % viability remaining at 96 h, NCI-H1651 cells was determined as 25%; the % viability remaining at 96 h, NCI-N87 cells is 27%; the IC50 at 96 h, cell-killing of MKN1 cells was found to be 0.7 nM. The IC50 at 96 h, cell-killing of NCI-H1651 cells amounted to 0.4 nM and the IC50 at 96 h, cell-killing of NCI-N87 cells came to 5.8 nM.
Molecule B8 returned a % viability remaining at 96 h, MKN1 cells of 29.7%; a % viability remaining at 96 h, NCI-H1651 cells of 27.2%; a % viability remaining at 96 h, NCI-N87 cells of 28.7%; an IC50 at 96 h, cell-killing of MKN1 cells of 0.9 nM. The same molecule yielded an IC50 at 96 h, cell-killing of NCI-H1651 cells of 0.6 nM and an IC50 at 96 h, cell-killing of NCI-N87 cells of 4.7 nM.
B9 showed a % viability remaining at 96 h, MKN1 cells of 30.6%; a % viability remaining at 96 h, NCI-H1651 cells of 28%; a % viability remaining at 96 h, NCI-N87 cells of 27.8%; an IC50 at 96 h, cell-killing of MKN1 cells of 2.3 nM. For the same molecule, the IC50 at 96 h, cell-killing of NCI-H1651 cells came to 0.9 nM and the IC50 at 96 h, cell-killing of NCI-N87 cells is 12.9 nM.

The values above are taken from US20260216242A1, “ALPP-SPECIFIC VARIANT ANTIGEN BINDING MOLECULES” (ALMAC DISCOVERY LIMITED, priority 2022, published 2026).
